Laboratory results from patent publication US20220323599A1 (CELGENE, published 2022).
Like-named read-outs stand apart in the source and are kept apart here.

Tests used:
[1] = biological target: T1, human BCMA on cells (endogenous on multiple myeloma cell lines; stably transfected 293T-hBCMA) (human, UniProt Q02223 1-184); assay: FACS cell binding, NCI-H929 (BCMA+) cells
T1 construct: also called TNFRSF17; CD269
T1 sequence: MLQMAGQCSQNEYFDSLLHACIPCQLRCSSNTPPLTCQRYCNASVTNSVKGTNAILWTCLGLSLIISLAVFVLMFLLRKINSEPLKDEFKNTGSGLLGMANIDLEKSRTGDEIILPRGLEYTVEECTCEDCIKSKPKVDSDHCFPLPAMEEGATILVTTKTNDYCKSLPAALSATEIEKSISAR

[2] = biological target: T2, cyno BCMA-Fc (custom protein production) (cynomolgus monkey, UniProt Q02223 1-54 (human entry)); assay: SPR (Biacore), antibody captured on anti-Fab or anti-Fc surface, cyno BCMA-Fc as analyte, 25 C
T2 construct: also called cynomolgus BCMA-Fc; not shown: Fc part of the fusion protein, not described

[3] = biological target: T1, human BCMA on cells (endogenous on …); assay: cell-based or functional assay
[4] = biological target: T3, cynomolgus BCMA on stably transfected 293T cells (cynomolgus monkey, UniProt Q02223 1-184 (human entry)); assay: FACS cell binding, 293T-cynoBCMA cells
T3 sequence (Q02223 other isoform, or with tags, fused parts or gaps): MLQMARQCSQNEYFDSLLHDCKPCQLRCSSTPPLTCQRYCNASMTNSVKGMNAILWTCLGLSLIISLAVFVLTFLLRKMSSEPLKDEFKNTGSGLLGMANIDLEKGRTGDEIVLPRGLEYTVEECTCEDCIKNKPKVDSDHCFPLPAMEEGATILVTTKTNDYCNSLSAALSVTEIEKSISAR

[5] = biological target: T4, human BCMA-Fc (R&D Systems) (human, UniProt Q02223 1-54); assay: SPR (Biacore), antibody captured on anti-Fab or anti-Fc surface, human BCMA-Fc as analyte, 25 C
T4 construct: Bought protein; not shown: Fc part of the bought fusion protein, not described
T4 sequence: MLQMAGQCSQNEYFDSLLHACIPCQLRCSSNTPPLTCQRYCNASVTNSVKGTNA

[6] = biological target: T1, human BCMA on cells (endogenous on …); assay: flow cytometry, 293T-hBCMA cells
[7] = biological target: T1, human BCMA on cells (endogenous on …); assay: flow cytometry, NCI-H929 cells; NCI-H929 cells
[8] = biological target: T5, mouse BCMA on transfected HEK293T cells (mouse, UniProt O88472 1-185); assay: flow cytometry on 293T-mBCMA cells
T5 sequence: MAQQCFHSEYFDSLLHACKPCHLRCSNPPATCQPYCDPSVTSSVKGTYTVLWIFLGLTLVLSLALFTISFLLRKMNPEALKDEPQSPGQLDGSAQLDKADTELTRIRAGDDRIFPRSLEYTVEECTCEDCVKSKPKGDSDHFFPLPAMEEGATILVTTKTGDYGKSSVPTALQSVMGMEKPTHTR

[9] = biological target: T1, human BCMA on cells (endogenous on …); assay: flow cytometry, OPM-2 cells
[10] = biological target: T1, human BCMA on cells (endogenous on …); assay: flow cytometry, MM.1S cells
[11] = biological target: T1, human BCMA on cells (endogenous on …); assay: flow cytometry, RPMI-8226 cells
[12] = biological target: T1, human BCMA on cells (endogenous on …); assay: flow cytometry, ARP-1 cells
[13] = biological target: T3, cynomolgus BCMA on stably transfected …; assay: flow cytometry, 293T-cBCMA cells
[14] = biological target: T1, human BCMA on cells (endogenous on …); assay: cell-based or functional assay; remark: listed apart in the source
[15] = biological target: T1, human BCMA on cells (endogenous on …); assay: flow cytometry, NCI-H929 cells
[16] = biological target: T6, human BAFF-R on stably transfected 293T cells (human, UniProt Q96RJ3 1-184); assay: flow cytometry on 293T cells stably expressing human BAFF-R
T6 construct: whole, on cells; also called TNFRSF13C

[17] = biological target: T1, human BCMA on cells (endogenous on …); assay: flow cytometry, U266B1 cells
[18] = biological target: T1, human BCMA on cells (endogenous on …); assay: cell-based or functional assay; remark: listed apart in the source
[19] = biological target: T1, human BCMA on cells (endogenous on …); assay: cell-based or functional assay; remark: listed apart in the source
[20] = biological target: T7, human TACI on stably transfected 293T cells (human, UniProt O14836 1-293); assay: flow cytometry on 293T cells stably expressing human TACI
T7 construct: whole, on cells; also called TNFRSF13B
T7 sequence (looked up): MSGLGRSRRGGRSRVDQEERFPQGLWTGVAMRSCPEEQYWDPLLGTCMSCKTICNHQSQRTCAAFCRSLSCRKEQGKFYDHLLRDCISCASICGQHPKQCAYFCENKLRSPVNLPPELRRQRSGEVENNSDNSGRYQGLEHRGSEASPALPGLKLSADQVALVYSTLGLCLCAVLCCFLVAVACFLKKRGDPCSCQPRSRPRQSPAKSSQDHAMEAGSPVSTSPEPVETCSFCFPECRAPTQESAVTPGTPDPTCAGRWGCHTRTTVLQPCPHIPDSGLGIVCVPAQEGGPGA

[21] = biological target: T1, human BCMA on cells (endogenous on …); assay: cell-based or functional assay; remark: listed apart in the source

B1: 2265-F02 (Fab-HC Variant ID; Antibody 4), cell-free expressed His- and FLAG-tagged IgG1 used in screening (antibody, V domains shown)
VH: EVQLVESGGGLVQPGGSLRLSCAASGFNISAPGIHWVRQAPGKGLEWVGFINPAGGYTDYADSVKGRFTISADTSKNTAYLQMNSLRAEDTAVYYCARDYIRQYWTYVLDYWGQGTLVTVSS
VL: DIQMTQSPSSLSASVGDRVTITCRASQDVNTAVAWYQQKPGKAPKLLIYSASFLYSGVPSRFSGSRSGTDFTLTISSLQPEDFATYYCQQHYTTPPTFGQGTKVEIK
[1]
  Kd: 5.2 nM
[2]
  Kd: 3.68 nM
  koff: 0.00116 s⁻¹
  kon: 315000 M⁻¹ s⁻¹
[3]
  ARP-1, Conjugate M 2° antibody cell killing, EC50: 1.9 nM
  U266B1, Conjugate M 2° antibody cell killing, EC50: 0.9 nM
[4]
  Kd: 6.2 nM
[5]
  Kd: 0.499 nM
  koff: 0.000293 s⁻¹
  kon: 587000 M⁻¹ s⁻¹

B2: 2265-F02 Y180/F404 (unconjugated Ab), unconjugated antibody version of Conjugate 4 (antibody, human IgG1, kappa, V domains shown)
VH: B1 VH
VL: not shown
modifications: p-azidomethyl-phenylalanine (pAMF) replacing HC-Y180 and HC-F404 by EU numbering (actual positions 186 and 410 as printed)
notes: Aglycosylated humanized IgG1
[6]
  Kd: 2.1 nM
[7]
  Kd: 0.9 nM
[8]
  binding result: no binding (tested: titrated from 200 nM)
[9]
  Kd: 1.3 nM
[10]
  Kd: 0.9 nM
[11]
  Kd: 1.3 nM
[12]
  Kd: 1 nM
[13]
  Kd: 2.8 nM

B3: Conjugate 4: Antibody 2265-F02 conjugated to a non-cleavable maytansine warhead (Conjugate M) at Y180/F404 site (DAR4) (antibody, human IgG1, kappa, V domains shown)
VH: B1 VH
VL: not shown
modifications: p-azidomethyl-phenylalanine (pAMF) at HC-Y180 and HC-F404 by EU numbering (actual positions 186 and 410 as printed), each linked to the non-cleavable maytansinoid drug-linker (Conjugate M); DAR 4
notes: also called Conjugate 4 ADC; BCMA ADC Conjugate 4
[14]
  cell killing EC50, ARP-1, no competing reagent: 0.7 nM
  cell killing EC50, NCI-H929, no competing reagent: 0.9 nM
  cell killing EC50, OPM2, no competing reagent: 3.3 nM
  cell killing EC50, U266B1, no competing reagent: 0.9 nM
[8]
  binding result: no binding (tested: titrated from 200 nM)
[9]
  Kd: 2.3 nM
[15]
  Kd: 2.4 nM
[16]
  binding result: no binding (tested: 67 nM)
[10]
  Kd: 1.6 nM
[11]
  Kd: 1.8 nM
[17]
  Kd: 3.9 nM
[18]
  cell killing EC50, NCI-H929, Experiment 1: 0.7 nM
  cell killing EC50, NCI-H929, Experiment 2: 0.8 nM
  cell killing EC50, OPM2, Experiment 1: 1.7 nM
  cell killing EC50, OPM2, Experiment 2: 2 nM
  cell killing EC50, U266B1, Experiment 1: 0.7 nM
  cell killing EC50, U266B1, Experiment 2: 0.8 nM
[12]
  Kd: 1.2 nM
[13]
  Kd: 2.7 nM
[19]
  cell killing EC50, NCI-H929, Experiment 1: 0.8 nM
  cell killing EC50, NCI-H929, Experiment 2: 0.8 nM
  cell killing EC50, OPM2, Experiment 1: 1.7 nM
  cell killing EC50, OPM2, Experiment 2: 1.8 nM
  cell killing EC50, U266B1, Experiment 1: 0.8 nM
  cell killing EC50, U266B1, Experiment 2: 0.9 nM
[20]
  binding result: no binding (tested: 67 nM)
[21]
  cell killing EC50, ARP-1: 0.7 nM
  cell killing EC50, MM.1S: 0.82 nM
  cell killing EC50, NCI-H929: 0.8 nM
  cell killing EC50, OPM-2: 2.1 nM
  cell killing EC50, U266B1: 0.86 nM
